Assays:
[1] = AFM of peptide alone (self-aggregation / fibril formation); format: physicochemical
Protocol: (§1) Samples labeled with hIAPP contained 40 μM hIAPP. The sample with pramlintide and hIAPP contained a 2:1 molar mixture (80 μM Pramlintide mixed with 40 μM hIAPP). The samples with raccoon IAPP and Pramlintide alone contained 40 μM of the indicated peptides. Each sample was incubated for 40 minutes at 37° C. with shaking; conditions known to promote hIAPP amyloid formation. All scans show raw data with no flattening and are […].
(§2) Samples of hIAPP with or without animal IAPP were prepared as described in Example 1 and were then incubated with shaking at 37° C. for 40 minutes. After this incubation, 17 μL of each sample was deposited onto freshly cleaved mica. Samples were incubated for 5 minutes at room temperature before washing with 200 μL sterile water. After drying, the samples were scanned using an MFP-3D atomic force microscope (Asylum Research) set on A/C mode and a 240 m silicon cantilever (Olympus).
(§3) Many of the animal IAPP variants are known to likewise form fibrils and yield amyloid-plaques when scanned via AFM. […] This is in spite of the fact that all of these IAPP peptides (except polar bear IAPP) are known to aggregate and form fibrils themselves under these or similar conditions

RIN-m cells = experiment: MTT viability assay, peptide alone or mixed with hIAPP; format: cell-based; conditions: for rescue / protection of cells from hIAPP toxicity (words): hIAPP mixed with peptide 1:1, MTT assay; for toxicity of peptide to cells: peptide alone, MTT assay, pancreatic (RIN-m) cells
Description: Cytoprotection can likewise be measured by a number of assays known to the art. One such assay is the MTT assay, which is a colorimetric assay for assessing cell metabolic activity. NAD(P)H-dependent cellular oxidoreductase enzymes in the cytosolic compartment of a cell reduces the tetrazolium dye MTT 3-(4,5-dimethylthiazol-2-yl)-2,5-diphenyltetrazolium bromide to an insoluble form, formazan, which has a purple color. The reduction of MTT (and other tetrazolium dyes) depends on the cellular metabolic activity, so a loss of color in the course of performing an MTT assay indicates low metabolic activity, and is thus an indicator of cell damage and death.
To test cell viability, a MTT colorimetric assay measuring the conversion of yellow tetrazolium salt into purple formazan crystal catalyzed by a mitochondrial reductase was used. Cell viability studies were performed using RIN-m cells (ATCC, CRL-2057). An equal number of RIN-m cells were plated in triplicate and incubated overnight in 96-well plates. The next day, fresh RPMI-1640 with phenol red supplemented with 10% FBS was added to cells. Hexafluoroisopropanol (HFIP) was removed from each individual human and animal IAPP using a centrivap concentrator (LabOnco). All IAPP peptide samples were re-suspended in RPMI-1640 with 10% FBS. To ensure even re-suspension, each resulting IAPP-containing vial was scraped with a pipette tip six times and vortexed (Vortex Genie Mixer) for 15 seconds. The whole process, from drying each IAPP peptide to adding each IAPP peptide to the cells was uniform to ensure that each sample was incubated for an equal amount of time with each IAPP peptide. IAPP peptides were added to cells and incubated for 46 hours at 37° C. Post-incubation, the media in each well was replaced by fresh DMEM/F-12 without phenol red. MTT (3-(4,5-dimethyl-2-thiazolyl)-2,5-diphenyl-tetrazolium bromide) was added into each well and incubated at 37° C. for 2 hours. Formazan crystals, formed on the bottom of the wells, were re-suspended in solubilization buffer (20% SDS and 50% dimethylformamide). The absorbance in each well was taken at 570 nm using a Multiskan FC Microplate Photometer (Thermos Fisher Scientific). Media were obtained from ATCC. All incubations took place in a water jacketed incubator in 5% carbon dioxide at 37° C. (Shell Lab).
The MTT viability assay was used to measure cell viability of RIN-m cells upon addition of hIAPP alone, the addition of each animal IAPP peptide alone, and hIAPP mixed with each animal IAPP peptide (results shown in FIG. 5). RIN-m cells alone were used as a control and set to 100% cell viability. […] Addition of raccoon IAPP to hIAPP increased the cell viability from 55% to an average of 72% (p=0.005705). Addition of chicken IAPP variant to hIAPP increased cell viability to an average of 76% (p=0.013556).

human IAPP (hIAPP) [2] = biological target: T1, human IAPP (hIAPP) (Homo sapiens, UniProt P10997); experiment: Atomic force microscopy (AFM) of hIAPP fibril formation when mixed with IAPP peptides; format: biochemical; conditions: for inhibition of hIAPP fibril formation, AFM: 37 μM hIAPP and 75 μM peptide, 37° C. with shaking for 40 minutes
T1 construct: This 37 amino acid polypeptide is co-secreted from pancreatic β-islet cells with insulin
T1 sequence (P10997 34-70 limits assumed): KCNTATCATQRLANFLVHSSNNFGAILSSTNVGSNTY
Protocol: as §1
Each sample contained 37 μM hIAPP and 75 μM of the indicated peptide. Samples were incubated at 37° C. with shaking for 40 minutes. All scans show raw data with no flattening and are […].
Each sample contained 37 μM hIAPP mixed with 37 μM of the indicated peptide. Samples were incubated at 37° C. with shaking for 30 minutes before depositing each sample onto freshly cleaved mica.
as §2, §3

human IAPP (hIAPP) [3] = biological target: T1, human IAPP (hIAPP); experiment: Thioflavin T binding assay of hIAPP aggregation when mixed with IAPP peptides; format: biochemical; conditions: for inhibition of hIAPP aggregation, thioflavin T binding: hIAPP mixed with peptide, incubated at 37° C. with shaking; for inhibition of hIAPP aggregation (summary statement): peptide mixed with hIAPP, no single assay (thioflavin T and AFM)
Description: Any of a number of assays known to the art can be used to evaluate the ability of IAPP peptides to inhibit hIAPP aggregation and/or protect cells from hIAPP toxicity. Thioflavin T (ThT) binding is one such technique for identifying amyloid formation in real time. Human IAPP is known to bind thioflavin T during aggregation and amyloid formation, and upon binding to amyloid fibrils ThT will give a strong fluorescence signal at approximately 482 nm when excited at 450 nm. ThT fluorescence correlates linearly with amyloid concentration in a sample and therefore can be used to determine the amount of aggregation in a sample. This technique can therefore be used for identifying substances with amyloid-inhibiting potential when such substances are mixed with human IAPP under conditions known to result in the formation of aggregates by hIAPP. Determining the extent of aggregation can also be determined using other techniques, such as Atomic Force Microscopy (AFM), which can provide information about particle dimensions, shape, and substructure with nanometer resolution. In the foregoing assays and others that can be used by one of skill in the art, significant inhibition can be determined using a t-test by measuring the difference between hIAPP and hIAPP combined with an IAPP peptide.
To identify IAPP peptides having inhibitory potential against hIAPP aggregation, the peptides shown in FIG. 1 from a number of species (cow, degu, guinea pig, horse, pig, rat, and sheep[…]) were mixed with hIAPP at a 2:1 molar ratio of animal peptide to hIAPP and incubated under conditions known to promote hIAPP aggregation and fibril formation. IAPP alone, or hIAPP mixed with an animal IAPP, was pipetted into a glass tube and the HFIP was removed under speed-vacuum. The resulting peptide sample was dissolved in 20 mM Tris buffer pH 7.4.
37 μM human IAPP was mixed with 75 μM of each indicated animal IAPP. Aggregation was initiated by incubating samples at 37° C. with shaking at 200 rpm for 40 minutes. At indicated time points, a 17 μL aliquot of each sample was mixed with 663 μL of 50.0 μM thioflavin T in 20 mM Tris buffer (pH 7.4). Thioflavin T fluorescence emission was then recorded at 488 nm using a Hitachi F-7000 fluorescence spectrophotometer.
After 40 minutes, these samples were monitored for their ability to bind thioflavin T (see FIG. 2) and their ability to form fibrils as identified with atomic force microscopy.
Human IAPP (37 μM) was mixed with each of the indicated Weddell seal variants (at 75 μM) and incubated for 30 minutes at 37° C. with shaking at 200 rpm. The Weddell seal IAPP peptides were likewise subjected to atomic force microscopy as described in Example 2.
Human IAPP was mixed with each of the indicated raccoon variants and incubated at 37° C. with shaking.
Human IAPP was mixed with each of the indicated chicken variants and incubated at 37° C. with shaking. […] However, it was able to protect cells in MTT assays, so it is believed to inhibit formation of toxic oligomers while having a lesser effect on inhibiting the formation of fibers (which are less toxic and less able to bind ThT).
Human IAPP was mixed with each of the indicated chicken variants and incubated at 37° C. with shaking.

Compound	aggregation propensity relative to comparator ([1]; comparison of pramlintide with the IAPP peptides)	aggregation / fibril formation of peptide alone, AFM ([1]; peptide alone, incubated 40 minutes at 37° C. with shaking)	rescue / protection of cells from hIAPP toxicity (words) (RIN-m cells)	toxicity of peptide to cells (RIN-m cells)	inhibition of hIAPP fibril formation, AFM (human IAPP (hIAPP) [2])	inhibition of hIAPP aggregation, thioflavin T binding (human IAPP (hIAPP) [3])	inhibition of hIAPP fiber formation (human IAPP (hIAPP) [2]; FIG. 22: 37 μM hIAPP mixed with 37 μM peptide, 37° C. with shaking for 30 minutes)	rescue / protection of cells from hIAPP toxicity (words) (RIN-m cells; listed as Rac-L26Y)	inhibition of hIAPP aggregation (summary statement) (human IAPP (hIAPP) [3])
CC[C@H](C)[C@H](NC(=O)[C@@H]1CCCN1C(=O)CNC(=O)[C@H](Cc1ccccc1)NC(=O)[C@H](CC(N)=O)NC(=O)[C@H](CC(N)=O)NC(=O)[C@H](CO)NC(=O)[C@H](CO)NC(=O)[C@H](Cc1c[nH]cn1)NC(=O)[C@@H](NC(=O)[C@H](CC(C)C)NC(=O)[C@H](Cc1ccccc1)NC(=O)[C@H](CC(N)=O)NC(=O)[C@H](C)NC(=O)[C@H](CC(C)C)NC(=O)[C@H](CCCNC(=N)N)NC(=O)[C@H](CCC(N)=O)NC(=O)[C@@H](NC(=O)[C@H](C)NC(=O)[C@@H]1CSSC[C@H](NC(=O)[C@@H](N)CCCCN)C(=O)N[C@@H](CC(N)=O)C(=O)N[C@@H]([C@@H](C)O)C(=O)N[C@@H](C)C(=O)N[C@@H]([C@@H](C)O)C(=O)N1)[C@@H](C)O)C(C)C)C(=O)N[C@@H](CC(C)C)C(=O)N1CCC[C@H]1C(=O)N1CCC[C@H]1C(=O)N[C@H](C(=O)N[C@@H](CC(N)=O)C(=O)N[C@H](C(=O)NCC(=O)N[C@@H](CO)C(=O)N[C@@H](CC(N)=O)C(=O)N[C@H](C(=O)N[C@@H](Cc1ccc(O)cc1)C(N)=O)[C@@H](C)O)C(C)C)[C@@H](C)O [pramlintide, reference compound]	more amyloidogenic than the present IAPP peptides	formed amyloid fibers	no ability to protect cells from the toxic effects of hIAPP	toxic to the cells	–	–	–	–	–
KCNTATCVTQRLANFLLRSSNNLGAIL (Procyon lotor truncation) [R1-27]	–	–	rescued cells from hIAPP-induced cytotoxicity	–	did	inhibited hIAPP aggregation	–	–	–
KCNTATCVTQRLANFLLRSSNNLGAIYSPTNVGSNTY (Procyon lotor mutation) [Rac_L26Y]	–	–	improved cell viability in the presence of hIAPP	minimal inherent toxicity	–	inhibited hIAPP aggregation	stood out for its ability to inhibit hIAPP fiber formation	rescue cells from hIAPP toxicity	–
KCNTATCATQRLANFLVRSGNLFGAILSPTNVGSNTY (listed as Ursus maritimus) [polar bear IAPP]	–	–	not capable of protecting RIN-m cells from the toxic effects of hIAPP	–	significant ability to prevent fiber formation	–	–	–	able to inhibit such aggregation
KCNTATCATQRLANFLVRSSNNLGAILSSTNVGSNTY (Leptonychotes weddellii mutation) [WS_RL]	–	–	rescued cells from hIAPP toxicity	–	strong inhibitors of hIAPP fiber formation	inhibited hIAPP aggregation	–	–	–
rat IAPP: naturally occurring IAPP peptide of rat origin (FIG. 1)	–	–	not capable of protecting RIN-m cells from the toxic effects of hIAPP	improved effect on cell viability	either had no effect on hIAPP fibril formation or appeared to promote fibrils with hIAPP	–	–	–	failed to inhibit the aggregation of human IAPP
KCNTATCVTQRLADFLVRSSSNIGAIY (Gallus gallus truncation) [C1-27]	–	–	rescued cells from hIAPP-induced cytotoxicity	–	did	inhibited hIAPP aggregation	–	–	–
KCNTATCVTQRLANFLLRSSNNLGAILSP (Procyon lotor truncation) [R1-29]	–	–	rescued cells from hIAPP-induced cytotoxicity	–	did	inhibited hIAPP aggregation	–	–	–
KCNTATCVTQRLADFLVRSSSNIGAIYSP (Gallus gallus truncation) [C1-29]	–	–	rescued cells from hIAPP-induced cytotoxicity	–	amyloid fibers were formed and did	inhibited hIAPP aggregation	–	–	–

From US12522635B2, “Amyloid peptide variants” (Loyola Marymount University, priority 2019, dated 2026)
